Data as given in patent publication US20110300113A1, “Death Receptor CD95 Controls Neurogenesis of Adult Neural Stem Cells in Vivo and in Vitro” (DEUTSCHES KREBSFORSCHUNGSZENTRUM, priority 2006, published 2011).

How the values were obtained:
Assay type in all cases: cell-based, mouse
SVZ NSCs = assay: β-III-tubulin expression in adult SVZ neural progenitor cells (flow cytometry); settings: SVZ progenitors, in the presence of growth factors
Description: Lentiviral infections. SVZ NSCs were infected with the lentiviral vector pEIGW and pEIGW-GSK3βS9A at a multiplicity of infection (MOI) of 5. The plasmids were constructed by replacing the eGFP sequence between the EF1α promotor and the WPRE element in pWPTS-eGFP with the IRES-eGFP cassette form pIRES2-eGFP (Clontech, Germany). The recombinant lentiviral vector pEIGW-GSK3βS9A was constructed using pcDNA3 HA-GSK3βS9A. This vector encodes a constitutively active GSK3β mutant containing a serine-to-alanine substitution at residue 9 (GSK3βS9A). Expression of all transgenes was confirmed in infected cells by FACS analysis of GFP expression. The percentage of infected cells was 70-90%.
siRNA. […] 48 h later pp60 src knockdown was assessed by Western Blot. At the same time, cells were stimulated with CD95L-T4 and analysed after 48 h for β-III-tubulin positive cells.
For staining of intracellular markers, cells were harvested, fixed with 4% PFA for 10 min on ice, washed and permeabilized using 0.1% Saponin (Sigma-Aldrich) in PBS with 10% FCS (SAP). […] Cells were washed again three times with SAP and analysed. […] To quantify DNA fragmentation, cells detached with trypsin were centrifuged, washed and fixed with 70% ethanol at −20° C. for 1 h. […] After final washings, all samples were analysed using a FACS-Calibur (Becton Dickinson) and CellQuest Software (Becton Dickinson). […]

hippocampal NSCs = assay: β-III-tubulin expression in hippocampal neural progenitor cells; settings: neural progenitors isolated from the HC
Protocol: (§1) For staining of intracellular markers, cells were harvested, fixed with 4% PFA for 10 min on ice, washed and permeabilized using 0.1% Saponin (Sigma-Aldrich) in PBS with 10% FCS (SAP). Cells were incubated with primary antibody or isotype for 30 min on ice. Cells were washed three time with SAP and incubated with secondary antibody for 30 min on ice. Cells were washed again three times with SAP and analysed. Antibodies used were: anti β-III-tubulin (Chemicon) 1:100, anti GFAP (Chemicon) 1:100 and isotype mouse IgG1 (Sigma) 1:20. Secondary antibody was goat anti-mouse PE 1:100 (Dianova). To quantify DNA fragmentation, cells detached with trypsin were centrifuged, washed and fixed with 70% ethanol at −20° C. for 1 h. Fixed cells were resuspended in a hypotonic lysis buffer (0.1% sodium citrate and 0.1% Triton X-100) containing […] of propidium iodide, incubated at 4° C. overnight. After final washings, all samples were analysed using a FACS-Calibur (Becton Dickinson) and CellQuest Software (Becton Dickinson).
(§2) Mouse adult neural stem cell culture. NSCs were isolated as previously described^30. Briefly, 6 week old female C57BL6 mice were sacrificied and tissue from hippocampus, SVZ and spinal cord was dissected out. […]

neural progenitor cells [1] = assay: GFAP expression (glial differentiation) in neural progenitor cells; settings: data not shown
Protocol: as §1, §2

neural progenitor cells [2] = assay: Proliferation rate of neural progenitor cells; settings: compared to untreated cells; data not shown
Protocol: Mouse adult neural stem cell culture. NSCs were isolated as previously described^30. Briefly, 6 week old female C57BL6 mice were sacrificied and tissue from hippocampus, SVZ and spinal cord was dissected out. The tissue was digested, washed and cultured in Neurobasal Medium (Invitrogen Karlsruhe, Germany) supplemented with B27 (Invitrogen), Penicillin-Streptomycin (Invitrogen), Glutamax (Invitrogen), Heparin (2 μg/ml) (Sigma) and the growth factors EGF (20 ng/ml) (Promocell) and bFGF (20 ng/ml) (Promocell). After 7 days in culture neurospheres were harvested by centrifugation, dissociated using trypsin (Invitrogen) and replated. Cells were passaged once to twice weekly. Cells used for experiments were passaged between 10 to 15 times. Cells were stimulated with 10 μM Retinoic Acid or 1 activation unit of CD95L-T4. One activation unit was defined as the amount of CD95L-T4 required to increase phosphorylation of GSK3β. Activation units were defined freshly for each batch of CD95L-T4 and varied from 5-40 ng/ml.

NSCs = assay: Apoptosis and caspase activity in NSCs
Protocol: as §1
Caspase Activity Assay. Apostat Intracellular Caspase Detection Caspase Activity Assay was purchased from R&D Systems. Assay was performed according to the manufacturers' instructions and analyzed using a FACSCalibur (Becton Dickinson) and CellQuest software (Becton Dickinson).

B1: CD95L: the ligand for CD95 (APO-1/Fas) (protein, listed as Homo sapiens)
chain: MQQPFNYPYPQIYWVDSSASSPWAPPGTVLPCPTSVPRRPGQRRPPPPPPPPPLPPPPPPPPLPPLPLPPLKKRGNHSTGLCLLVMFFMVLVALVGLGLGMFQLFHLQKELAELRESTSQMHTASSLEKQIGHPSPPPEKKELRKVAHLTGKSNSRSMPLEWEDTYGIVLLSGVKYKKGGLVINETGLYFVYSKVYFRGQSCNNLPLSHKVYMRNSKYPQDLVMMEGKMMSYCTTGQMWARSSYLGAVFNLTSADHLYVNVSELSLVNFEESQTFFGLYKL
modifications: CHAIN (1)..(281) This feature is the amino acid sequence for CD95L protein. CD95L is a ligand for CD95. CD95 is APO-1/Fas and a member of the tumor necrosis factor receptor superfamily.
SVZ NSCs
  β-III-tubulin expression: greatly increased β-III-tubulin expression
Hippocampal NSCs
  β-III-tubulin expression: increase in β-III-tubulin expression
Neural progenitor cells [1]
  GFAP expression: did not change GFAP expression
Neural progenitor cells [2]
  proliferation rate: did not lead to significant changes in the proliferation rate
NSCs
  apoptosis: could not detect apoptosis
